Laboratory results reported in paper PMC6165294, “The Effect of Ca^2+, Lobe-Specificity, and CaMKII on CaM Binding to NaV1.1” (International Journal of Molecular Sciences, 2018).
Ends that are not written are not given here.

Biological target: T1, calmodulin (CaM), human, wild type (human, UniProt P0DP23 1-149)
T1 construct: human calmodulin, subcloned from HEK293 cells; Vector pGEX-6P-1; also called wt CaM; apoCaM; source: E. coli BL21 (DE3), GST fusion purified on Glutathione Sepharose 4B; GST cleaved with PreScission Protease
Assay: pull-down; GST-fusion mutated IQ (T1909A, S1918A, T1934A), treated with CaMKII and CIP, incubated with a fixed concentration of CaM (1.4 uM); [Ca2+] ≈ free; Coomassie stain
Settings: both partners purified

B1: GST-fusion NaV1.1 IQ domain, potential CaMKII phosphorylation sites mutant (T1909A + S1918A + T1934A) (domain or fragment)
chain: ALKRKQEEVAAVIIQRAYRRHLLKRAVK
modifications: not fully specified (N-terminus); also: GST fusion protein
notes: IQ domain of human NaV1.1, amino acids 1909-1936, with T1909A, S1918A and T1934A; the treated samples are kept as one molecule; also called mutated NaV1.1 IQ; source: E. coli BL21 (DE3), GST fusion purified on Glutathione Sepharose 4B beads
  binding result: binds
